Reference: paper PMC3969221 (2014)

Molecular target: Cry1AbMod protoxin (Bacillus thuringiensis, UniProt P0A370 1-1155)
Experiment: ELISA

B1: Manduca sexta cadherin protein fragment (CR7–CR12) (domain or fragment)
chain: MIDFLTGQISVNTSGAIDADTPPRFHLYYTVVASDRCSTEDPADCPPDPTYWETEGNITIHITDTNNKVPQAETTKFDTVVYIYENATHLDEVVTLIASDLDRDEIYHTVSYVINYAVNPRLMNFFSVNRETGLVYVDYETQGSGEVLDRDGDEPTHRIFFNLIDNFMGEGEGNRNQNDTEVLVILLDVNDNAPELPPPSELSWTISENLKQGVRLEPHIFAPDRDEPDTDNSRVGYEILNLSTERDIEVPELFVMIQIANVTGELETAMDLKGYWGTYAIHIRAFDHGIPQMSMNETYELIIHPFNYYAPEFVFPTNDAVIRLARERAVINGVLATVNGEFLERISATDPDGLHAGVVTFQVVGDEESQRYFQVVNDGENLGSLRLLQAVPEEIREFRITIRATDQGTDPGPLSTDMTFRVVFVPTQGEPRFASSEHAVAFIEKSAGMEESHQLPLAQDIKNHLCEDDCHSIYYRIIDGNSEGHFGLDPVRNRLFLKKELIREQSASHTLQVAASNSPDGGIPLPASILTVTVTVREADPRPVFVRELYTAGISTADSIGRELLRLHATQSEGSAITYAIDYDTMVVDPSLEAVRQSAFVLNAQTGVLTLNIQPTATMHGLFKFEVTATDTAGAQDRTDVTVYVVSSQNRVYFVFVNTLQQVEDNRDFIA
B1 showed a Kd of 6.8 nM.
